For 13 molecules, Kd, koff and kon results are on record in patent publication US20240209076A1 (KODIAK SCIENCES, published 2024).

Numbering of substitutions follows the chain as printed. Names may count otherwise.

First the molecules themselves.
B1: anti-IL-6 antibody, light chain S30A (heavy chain WT) (antibody, V domains shown)
VH: EVQLVESGGGLVQPGGSLRLSCAASGFTFSPFAMSWVRQAPGKGLEWVAKISPGGSWTYYSDTVTGRFTFSLDTSKSTAYLQMNSLRAEDTAVYYCARQLWGYYALDIWGQGTLVTVSS
VL: DIQLTQSPSSLSASVGDRVTITCSASISVAYMYWYQQKPGKAPKLLIYDMSNLASGVPSRFSGSGSGTDFTLTISSLQPEDFATYYCMQWSGYPYTFGQGTKVEIK
notes: See note of m2; also called WT / S30A
B2: anti-IL-6 antibody, light chain S51D (heavy chain WT) (antibody, V domains shown)
VH: B1 VH
VL: B1 VL with A30S, S51D
notes: See note of m2; also called WT / S51D
B3: anti-IL-6 antibody, light chain S55L (heavy chain WT) (antibody, V domains shown)
VH: B1 VH
VL: B1 VL with A30S, S55L
notes: See note of m2; also called WT / S55L
B4: anti-IL-6 antibody, light chain S55R (heavy chain WT) (antibody, V domains shown)
VH: B1 VH
VL: B1 VL with A30S, S55R
notes: See note of m2; also called WT / S55R
B5: anti-IL-6 antibody, light chain Y31F (heavy chain WT) (antibody, V domains shown)
VH: B1 VH
VL: B1 VL with A30S, Y31F
notes: See note of m2; also called WT / Y31F
B6: anti-IL-6 antibody, light chain S55Y (heavy chain WT) (antibody, V domains shown)
VH: B1 VH
VL: B1 VL with A30S, S55Y
notes: See note of m2; also called WT / S55Y
B7: anti-IL-6 antibody, light chain S30G (heavy chain WT) (antibody, V domains shown)
VH: B1 VH
VL: B1 VL with A30G
notes: See note of m2; also called WT / S30G
B8: anti-IL-6 antibody, light chain S51R (heavy chain WT) (antibody, V domains shown)
VH: B1 VH
VL: B1 VL with A30S, S51R
notes: See note of m2; also called WT / S51R
B9: anti-IL-6 antibody, light chain Y31G (heavy chain WT) (antibody, V domains shown)
VH: B1 VH
VL: B1 VL with A30S, Y31G
notes: See note of m2; also called WT / Y31G
B10: anti-IL-6 antibody, light chain S91A (heavy chain WT) (antibody, V domains shown)
VH: B1 VH
VL: B1 VL with A30S, S91A
notes: See note of m2; also called WT / S91A
B11: anti-IL-6 antibody, light chain S55W (heavy chain WT) (antibody, V domains shown)
VH: B1 VH
VL: B1 VL with A30S, S55W
notes: See note of m2; also called WT / S55W
B12: anti-IL-6 antibody, light chain S51K (heavy chain WT) (antibody, V domains shown)
VH: B1 VH
VL: B1 VL with A30S, S51K
notes: See note of m2; also called WT / S51K
B13: anti-IL-6 antibody, light chain V29L (heavy chain WT) (antibody, V domains shown)
VH: B1 VH
VL: B1 VL with V29L, A30S
notes: See note of m2; also called WT / V29L

For this assay, the target named is T1, recombinant human IL-6 (human, UniProt P05231 30-212).
T1 construct: Bought protein
T1 sequence (P05231 30-212 limits assumed): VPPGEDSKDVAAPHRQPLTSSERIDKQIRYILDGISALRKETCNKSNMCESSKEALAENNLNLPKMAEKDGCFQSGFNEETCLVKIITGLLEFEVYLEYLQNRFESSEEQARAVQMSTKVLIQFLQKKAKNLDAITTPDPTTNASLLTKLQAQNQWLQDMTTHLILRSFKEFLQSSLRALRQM
As to the kind of experiment: SPR Biacore, supernatant Ab on Protein A chip, IL-6 analyte, 25 C. The procedure: Antibodies were captured on a Protein A chip (GE) by injecting 1:20 dilution of cell supernatant at 10 μL/min for 60 seconds. […] The sensor chip was regenerated by a 60 seconds injection of 10 mM Glycine pH 1.7 at flow rate of 50 μL/min. […] For this setup, 1 μg/mL of purified antibody was injected over a Protein A chip at 10 μL/min for 25-28 seconds. Data analysis for supernatant and purified samples were performed using BIAevaluation software (GE). All sensorgrams were double reference subtracted and fit using a 1:1 Langmuir binding model.
With B1, the dissociation constant Kd came to 639 pM, the koff is 0.000163 s⁻¹ and the kon came out at 255000 M⁻¹ s⁻¹.
On to B2, for which the Kd stood at 296 pM, the off-rate constant (koff) was 0.000216 s⁻¹ and the kon worked out at 729000 M⁻¹ s⁻¹.
The like results for B3 were, in that order, 329 pM, 0.00022 s⁻¹ and 668000 M⁻¹ s⁻¹.
The like results for B4 were, in that order, 109 pM, 0.000107 s⁻¹ and 987000 M⁻¹ s⁻¹.
Consider B5, for which the Kd was determined as 472 pM, the koff is 0.000138 s⁻¹ and the kon was 292000 M⁻¹ s⁻¹.
In the same order, the values of B6 are 461 pM, 0.000201 s⁻¹ and 436000 M⁻¹ s⁻¹.
In the same order, the values of B7 are 316 pM, 0.000173 s⁻¹ and 548000 M⁻¹ s⁻¹.
In the same order, the values of B8 are 463 pM, 0.000231 s⁻¹ and 499000 M⁻¹ s⁻¹.
For B9, the Kd was determined as 666 pM, the koff was determined as 0.000203 s⁻¹ and the on-rate constant (kon) was 305000 M⁻¹ s⁻¹.
The like results for B10 were, in that order, 407 pM, 0.000139 s⁻¹ and 341000 M⁻¹ s⁻¹.
As for B11, the Kd stood at 401 pM, the koff stood at 0.000226 s⁻¹ and the kon stood at 563000 M⁻¹ s⁻¹.
The like results for B12 were, in that order, 535 pM, 0.000212 s⁻¹ and 396000 M⁻¹ s⁻¹.
The like results for B13 were, in that order, 487 pM, 0.000171 s⁻¹ and 351000 M⁻¹ s⁻¹.
